The results in this text go back to US20050124794A1 (published 2005).

B2: Recombinant HKa domain 5 (HKa D5) (ligand)
chain: VSPPHTSMAPAQDEERDSGKEQGHTRRHDWGHEKQRKHNLGHGHKHERDQGHGHQRGHGLGHGHEQQHGLGHGHKFKLDDDLEHQGGHVLDHGHKHKHGHGHGKHKNKGKKNGKHNGWKTEHLAS
notes: also called HK-D5; D5 domain of HKa

The target in assay [1] is B2. In words: chymotryptic digest of chicken gizzard Tpm on HK-D5-Sepharose in TBS with 10 uM ZnCl2, elution with 2 M NaCl, SDS-PAGE. The procedure: Chicken gizzard Tpm (0.4 mg/ml) was incubated with 5 μg/ml chymotrypsin in TBS pH 7.5 at 37° C. and aliquots were taken at the indicated times. SDS-PAGE sample buffer was added and the sample heated at 80° C. for 4 minutes and then loaded onto and run on a 10% NuPage gel (Invitrogen).
Chicken gizzard Tpm was partially digested with Chymotrypsin as described for FIG. 19 for 100 minutes so that a 20 kDa fragment was enriched. HK-D5 had previously immobilized in an activated Sepharose (CNBr-activated Sepharose 4 B, Amersham Biosciences). The chymotryptic fragments were incubated with the HK-D5-Sepharose resin in TBS containing 10 μM ZnCl₂, washed extensively in the same buffer and eluted in 2 M NaCl. The samples were run in a 10% NuPage gel (Invitrogen).

The target of assay [2] is T1, Chicken gizzard tropomyosin (Tpm), purified (chicken).
T1 construct: Bought from Sigma and coated on 96-well plates; also called purified Tpm; immobilized Tpm
T1 sequence (chain, as listed by the source limits assumed): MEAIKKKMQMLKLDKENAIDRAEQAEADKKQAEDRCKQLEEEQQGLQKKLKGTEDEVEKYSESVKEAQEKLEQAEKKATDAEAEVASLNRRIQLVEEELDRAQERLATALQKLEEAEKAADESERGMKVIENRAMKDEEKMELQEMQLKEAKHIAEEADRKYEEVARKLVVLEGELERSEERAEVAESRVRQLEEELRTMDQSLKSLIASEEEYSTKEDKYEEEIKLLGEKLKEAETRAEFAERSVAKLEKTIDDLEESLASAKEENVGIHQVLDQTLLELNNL
Put plainly: displacement of 10 nM biotin-HKa from immobilized chicken gizzard Tpm, 10 µM ZnCl2. The procedure: The IC₅₀ for the displacement of biotinylated-HKa for the peptides shown in Table 5 was determined as follows: 10 nM biotin-HKa is added to a 96 well plate previously coated with 200 ng of chicken gizzard Tpm in the presence of 10 μM ZnCl₂. Increasing amounts of the peptides are added to the wells. The remaining biotin-HKa bound to Tpm was detected using avidin-HRP and a chromogenic substrate. A Kd was determined by non-linear regression analysis of the empirical data. The effect on the Matrigel Plug assay was determined as follows: Matrigel (0.5 mL) containing 400 ng/ml of bFGF, 50 μg/ml heparin with or without the peptide (300 μM) or saline buffer are injected in the flanks of a mouse. After five days, the plugs are removed and the plugs scanned.

Assay [3] has as its target T1, Chicken gizzard tropomyosin (Tpm), …. In words: competition ELISA against 10 nM biotin-HKa on immobilized chicken gizzard Tpm, 10 uM ZnCl2.
Assay [4] shares this target. Put plainly: competition with 10 nM biotin-HKa on plate coated with 200 ng chicken gizzard Tpm, 10 µM ZnCl2. The procedure: 10 nM biotin-HKa was added to a 96 well plate previously coated with 200 ng of chicken gizzard Tpm in the presence of 10 μM ZnCl₂. Increasing amounts of HK-D5, HPRG-H/P domain or endostatin were added to the wells. Bound biotin-HKa was detected and Kd was calculated as for FIG. 10.
Binding to immobilized Tpm is carried out either by a competition assay with a known ligand, biotin-HKa, or by direct binding of the corresponding biotinylated protein. Plates are coated at room temperature with chicken gizzard Tpm (Sigma) in Tris buffer-saline (TBS) (200 ng/well). After incubation for 2 hours, wells are washed with TBS, then 1% BSA/TBS/Tween-20 is added to each well and incubate at 37° C. for two hours. HKa (Enzyme Laboratories) that had been previously biotinylated with EZ-Link (Pierce) according to the manufacturers instructions, is added to the plate at a concentration of 10 nM together with ZnCl₂ (10 μM) and the appropriate concentration of the protein, domain or peptide competitor. The plates are incubated at room temperature and then washed with TBS/Tween-20. Avidin-HRP is added, incubated for 20 minutes at room temperature, washed with TBS/Tween-20 and the chromogenic substrate is added. The reaction is stopped with sulfuric acid and the plate read at 490 nm.

The target is the same in assay [5]. Put plainly: inhibition of binding of 20 nM biotin-HKa to purified immobilized chicken gizzard Tpm; competition against 20 nM biotin-HKa. The procedure: FIGS. 7A-7C show specific binding of HKa to purified immobilized Tpm and its inhibition. […] Plates were incubated with increasing concentrations of biotin-HKa in the absence or presence of 10 μM Zn²⁺. […] The IC₅₀ for this inhibition was about 8.1 nM.

For assay [6] the target is unchanged. In words: binding to Tpm in vitro; assay not detailed.
For assay [7] the target is unchanged. In words: displacement of 10 nM biotin-HKa from immobilized chicken gizzard Tpm, 10 µM ZnCl2. The procedure:
The N-terminus of the pentapeptide HHPHG has been derivatized (capped) in an attempt to increase the pentapeptides' affinity to Tpm by increasing productive molecular contacts (or interactions). […] The IC₅₀ for the displacement of biotinylated-HKa for the capped peptides shown in the table was determined as follows: 10 nM biotin-HKa was added to a 96 well plate previously coated with 200 ng of chicken gizzard Tpm in the presence of 10 μM ZnCl₂. Increasing amounts of the peptides were added to the wells. The remaining biotin-HKa bound to Tpm was detected using avidin-HRP and a chromogenic substrate. A Kd was determined by non-linear regression analysis of the empirical data
This is another data set of the same source.

Ends that are not written are not given here. * marks the point of attachment. Fmoc = O=C(OCC1c2ccccc2-c2ccccc21)*

B1: Antiangiogenic Ligand-Binding Polypeptide (AALBP), chymotryptic fragment of chicken gizzard Tpm cTPM1 (other)
chain: not shown
Regarding B1, the binding result in assay [1] is given as “binds”.
Regarding HKNKGKKN [ATN16], the IC50 in assay [2] was determined as 99.5 µM.
Turning to B2, in assay [3], the “IC50 (read off the curve)” value was about 0.002 µM. Also, the “fold higher affinity than endostatin” value in assay [4] was about 1000 fold. This molecule also returned a half-inhibitory concentration (IC50) in assay [5] of about 0.0081 µM.

B3: ATN230 (peptide)
peptide: HHPHG
notes: Synthetic pentapeptide; also called HHPHG
Consider B3, for which the IC50 in assay [2] is 121 µM.
Consider AHPHG [AHPHG (Ala substituted mutant of HHPHG)], for which, in assay [6], the binding result is given as “no binding”.
In assay [2], HPPHG (also called HPPHG) [ATN228] gave an IC50 of 150 µM.
Take {4‑Chlorobenzyl}-HHPHG [ATN-276.000.01 (4-Chlorobenzyl N-capped HHPHG)]: in assay [7], the IC50 worked out at 23 µM.
Still for that read-out and setting: the figure for HHPHG (not fully specified (N-terminus)) [ATN-275.000.01 ((1S)-(+)-camphorsulphonyl N-capped HHPHG)] is 30 µM.
With TRRHDWGH [ATN232], the IC50 in assay [2] was 140 µM.
{3‑(1-adamantyl)propanoyl}-HHPHG [ATN-281.000.01 (3-(1-adamantyl)propanoyl N-capped HHPHG)] returned an IC50 in assay [7] of 59 µM.

B4: Histidine-Proline rich (H/P) domain of HPRG (ligand)
chain: SVNIIHRPPPHGHHPHGPPPHGHHPHGPPPHGHPPHGPPPRHPPHGPPPHGHPPHGPPPHGHPPHGPPPHGHPPHGPPPHGHPPHGHGFHDHGPCDPPSHK
notes: also called HPRG-H/P; HPRG-H/P domain
B4: in assay [4], the “fold higher affinity than endostatin” value is about 1000 fold.

B5: ATN-278.000.01 (Fmoc N-capped HHPHG) (peptide)
peptide: Fmoc-HHPHG
notes: The text says the N-terminus of the pentapeptide HHPHG was capped
Molecule B5 showed an IC50 in assay [7] of 55 µM.
